Tests used:
[1] = target: PvLDH (Plasmodium vivax, UniProt Q4PRK9 1-316); test: X-ray crystal structure; details: protein: recombinant; tags: His-tag (pET28a, Histrap); chain copies: 2
[2] = target: hLDH-B (Homo sapiens, UniProt P07195 2-334); test: EMSA; with or without Mg2+ and EDTA; EMSA: 20 mM HEPES pH 8.0, 5% glycerol, 50 mM NaCl, 5 mM KCl, 5 mM MgCl2 (or none), 5 mM DTT, 10 pmol DNA + 200 pmol protein in 20 ul, 1 h room temperature, gel; details: protein: commercial; chain copies: 4; hairpin with bulge; stem I T3-A34 to A6-T31, stem II G16-C30 to G20-C26, hairpin-bulge contact A22-T12, A21-T13
hLDH-B, sequence (P07195 2-334): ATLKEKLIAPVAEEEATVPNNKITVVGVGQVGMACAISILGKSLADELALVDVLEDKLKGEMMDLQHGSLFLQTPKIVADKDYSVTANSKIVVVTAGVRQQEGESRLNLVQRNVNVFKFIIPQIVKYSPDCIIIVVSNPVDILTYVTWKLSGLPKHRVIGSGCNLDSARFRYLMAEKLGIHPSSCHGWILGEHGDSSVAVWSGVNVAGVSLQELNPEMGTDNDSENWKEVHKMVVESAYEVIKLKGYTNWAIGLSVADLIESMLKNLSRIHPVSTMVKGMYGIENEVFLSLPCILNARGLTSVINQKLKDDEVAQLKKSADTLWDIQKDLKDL

[3] = target: hLDH-A (Homo sapiens, UniProt P00338 2-332); test: as above

## GTTCGATTGGATTGTGCCGGAAGTGCTGGCTCGAAC (structured_DNA) [pL1]
[1]
  binding result: binds
[2]
  binding result: no binding
[3]
  binding result: no binding

From PMC5057103, “Crystal structure of a DNA aptamer bound to PvLDH elucidates novel single-stranded DNA structural elements for folding and recognition”
